Data taken from the nanobody polyreactivity screen of Harvey et al. (2022).

Test: yeast display, Sf9 membrane polyspecificity reagent, FACS + sequencing; frameworks hold sequencing errors
Procedure, shortened: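 Genes from sorted yeast were amplified by colony PCR, read by MiSeq 2 × 250 sequencing and filtered on CDR length. These cells carried a synthetic nanobody library in Saccharomyces cerevisiae BJ5465 and were sorted by FACS into low and high (top ~1%) gates on anti-HA and streptavidin fluorescence. Polyreactivity is labelled according to the gate of origin.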

Row | Sequence | polyreactivity (PSR sort gate)
1 | QVQLVESGGGLVQAGGSLRLSCAPSRFIFGHYAMGWYRQAPGKERELVAGINSSGGSTHYADSVKGRFTISRDNAKNTVYLQMNSLKPEDTAVYYCAADVYRFYAGSRYYYWGQGTQVTVSS | low polyreactivity
2 | QVQLVESGGGLVQAGGSLRLSCAPYGLTFYGYTMGWYIQAPGKQRELVASISWSGGNKYYADSVKGRFTISRDKAKNSVYLQMNSLKPEDTAVYYCAAEHWTYDCVDYWGQGTQVTVSW | low polyreactivity
3 | QVQLVESGGGLVQAGGSLRLSCASGRIFKKNALGWYRQAPGKERELVAGITISGGRTYYADSVKGRFTISRDNAKNTVYLQMNSLKPEDTAVYYCNAGPDRRVSYYRLLDHWGQGTQVTVSS | low polyreactivity
4 | QVQLVESGGGLVQAGGSLRLSCASSGFIFFYYTKGWYRQAPGKERELVAAISTGGSTYYADSVKGRFTISRDNAKNTVYLQMNSLKPEDTAVYYCAALYWYEYTYLEYDYWGQGTQVTVSS | high polyreactivity
5 | QVQLVESGGGLVQAGGSLRLSCASSGFTFKDYAMGWYRQAPGKERELVAAISYSGGSTYYADSVKGRFTLSRDNAKNTVYLQMNSLKPEDTAVYYCARYFRRSAIYTRPRMDYWGQGTQVTVSS | high polyreactivity
6 | QVQLVESGGGLVQAGGSLRLSCASSGFTFSIYAMGWYRQAPGKERELVAAISSSGGITYYADAVKGRFTISRDNAKNTVYLQMKSLKPEDTAVYYWNKYFKTFYVSYLHDYWGQGTQVSVSS | high polyreactivity
7 | QVQLVESGGGLVQAGGSLRLSCASSGFTFWRNAMGWYRQAPGKERELVAAINWSGGSTYYADSVKGRFTISRDNAKNTVYLQMNSLKPEDTAVYYCAADLSSRGISQDDYWGQCTQVTVSS | high polyreactivity
8 | QVQLVESGGGLVQAGGSLRLSCASSGFTFWTYDMGWYRQAPGKERELVAAIDSGGSTYYADSVKGRFTISRDNAKNTVYLQMNSLKPEDTAVYYCNAGPSVTSGYDYDYWGQGTQVTVSS | low polyreactivity
9 | QVQLVESGGGLVQAGGSLRLSCASSGIILYYYVMGWYRQAPGKERELVAAINRSGTSTYYADSVKGRFTISRDNAKNTVYLQMNSLKPEDTAVYYCAAERYWSGGVFDYDYWGQGTQVTVSS | high polyreactivity
10 | QVQLVESGGGLVQAGGSLRLSCASSGITFDYYAMGWYRQAPGKERELVASISSDSSTYYADSVKGRFTISRDNAKNTVYLQMNSLKPEDTAVYYCNAGDTTFPFYYWGQGTQVTVSS | low polyreactivity
11 | QVQLVESGGGLVQAGGSLRLSCASSGITFTFYVMGWYRQAPGKERELVAAISSGGGRTYYADSVKGRFTISRDNAKNTVYLQMNSLKPEDTAVYYCNAALYHDSEYNYWGQGTQVSVSS | high polyreactivity
12 | QVQLVESGGGLVQAGGSLRLSCASSGKIFLSYAMGWYRQAPGKERELVAGISASGGRTYYADSVKGRFTISRDNAKNTVYLQMNSLKPEDTAVYYCNADTTPQGNVRDGYWGQGTQVTVSS | high polyreactivity
13 | QVQLVESGGGLVQAGGSLRLSCASSGLILFYNAMGWYRQAPGKERELVATIRRGGTTYYADSVKGRFTISRDNAKNTVYLQMNSLKPEDTAVYYCAKESLYQYDYWGQGTQVTVSS | low polyreactivity
14 | QVQLVESGGGLVQAGGSLRLSCASSGLTFELYAMGWYRQAPGKERELVAAITWSGGRTYYADSVKGRFTISRDNAKNTVYLQMNSLKPEDTAVYYCAADVYPGYVGSQEYDYWGQGTQVTVSS | low polyreactivity
15 | QVQLVESGGGLVQAGGSLRLSCASSGLTLQYYAMGWYRQAPGKERELVAAITYSGGSTYYADSVKGRFTISRDNAKNTVYLQRNSLKPEDTGVYYCAKVPVRSGGTLYDYWGQGTQVTVSS | low polyreactivity
16 | QVQLVESGGGLVQAGGSLRLSCASSGRIFGSYAMGWYRQAPGKERELVAGISKSGTSTYYADSVKGRFTISRDNAKNTVYLLMNSLKPEDTADYYCAKRFDSTKAKYYYWGQGTQGTVSS | high polyreactivity
17 | QVQLVESGGGLVQAGGSLRLSCASSGRIFGYYVRGWYRQAPGTERELVATISRVGTTNYADSVKGRFTISRDNAKNSVYLPMNSLKPEDTAVYYCNADYTGHRGGNDYWGQGTQVTVSS | low polyreactivity
18 | QVQLVESGGGLVQAGGSLRLSCASSGRIFPWNTMGWYRQAPGKERELVAGINNGDRTYYADSVKGRFTISRDNAKNRVYLQMNSLKPDETAVYYCARDDNPIYSGVTYDSWGQGTQVSVSS | low polyreactivity
19 | QVQLVESGGGLVQAGGSLRLSCASSGRIFSFYAMGWYRQAPGKERELVAAISWNSGRTYYADSVKGRFTISRDNAKNTVYLQMNSLKPEDTAVYYCAAPFSAYYGDDYWGQGTQVTVSS | low polyreactivity
20 | QVQLVESGGGLVQAGGSLRLSCASSGRIFYYYAMGWYRQAPGKEREFVARNRSSGGSTYADSVKGRFTISRDNAKNTVYLQMNSLKPEDTAVYYCARDGYTAVEYDYWGQGTQVTVSS | low polyreactivity
21 | QVQLVESGGGLVQAGGSLRLSCASSGRNFQKYAMGWYRQAPGKERELVAAISSGDSTYADSVKGRFTISRDNAKNTVYFQMNSLKPEDTAVYYCAVDLYDPWWYSYIGEYEYWGQGTQVTVSS | low polyreactivity

Row | Sequence | polyreactivity (PSR sort gate)
22 | QVQLVESGGGLVQAGGSLRLSCASSGRTFFKNALGWYRQSPGKERELVARISWNGGDSTYYADSVKGRFTISRDNAKITVFFQMISLKPEDTAVYYCAADTSYRQGGSRHGYVYWGQGTQVTVSS | low polyreactivity
23 | QVQLVESGGGLVQAGGSLRLSCASSGRTFFPYAKGWYRQAPGKEREFVAAITKTDDSTYYADSVKGRFTISRDNAKNTVYLQMNSLKPEDTAVYYCNAGDTQIRFYYWGQGTQVTVSS | low polyreactivity
24 | QVQLVESGGGLVQAGGSLRLSCASSGRTFGTYAMGSYRQAPGKDSELVAAITSGTRTYYADCVKGRFTISRDNAKNTVYLQMNSQKPEDTSVYYCAAGLVYRWSSTPRRLYYYWGQGTQVTVSS | high polyreactivity
25 | QVQLVESGGGLVQAGGSLRLSCASSGRTFLRYAMGWYRQAPGKERELVAAISSRGGTTHYADSVKGRFTISRDNAKNTVYLPMNSLKPEDTAVYYCAAKSFLPYLKFGYWGQGTQVTVSS | high polyreactivity
26 | QVQLVESGGGLVQAGGSLRLSCASSGRTFVNNAMGWSRQAPGKERELVAAISQSGSRTYYADSVKGRFTISRDNAKNTVYLQMNSLKPEDTAVYYCAARGARYSTSDYWGQGTQVTVSS | high polyreactivity
27 | QVQLVESGGGLVQAGGSLRLSCASSGRTFYSYAMGWYRQAPGKERELVAGITWSGTSTYYADSVKGRFTISRDNWKNTVYLQMYSLKPEDTAVYYCAAATLYSGYDYWGQGTQVSVSS | low polyreactivity
28 | QVQLVESGGGLVQAGGSLRLSCASSGRTFYSYVMGWYRQAHGKERELVAGISKRGGRTYYADSVKGRFTISRDNAKNTVYLEMYSLKPEDTAVYFCADDFPHTYWTFDFDYWGQGTQVTVSS | high polyreactivity
29 | QVQLVESGGGLVQAGGSLRLSCASSGRTIYGSTKGWYRQAPGKESELGAAIRRSGGSTYYADSVKGRFTISRDNAKNTVYFQMNRLNPEDTAVYYCAASWRDIYRHYNVYPYDYWGQGTQVTVSS | low polyreactivity
30 | QVQLVESGGGLVQAGGSLRLSCASSGSIFARYALGWYIQAPGKQRELVADINSTVSTNYADSVKGRFTISRDNAKNPVYLQMNSLKPEVTAVSYCAVDIVRGGRDSWGQGTQVTVSS | low polyreactivity
31 | QVQLVESGGGLVQAGGSLRLSCASSGSIFEANDMGWYRQAPGKEREFVADIDANSGSTYYADSVKGRFTISRDNAKNTVNLQMNSLKPEDTADYYCNAQVYLHTAYDYWGQVTQVTVSS | low polyreactivity
32 | QVQLVESGGGLVQAGGSLRLSCASSGSILGRYAMGWYRQAPGKERELVAAISGSGGSTYYADSVKGRFTISRDNAKNTVYLQMNSLKPEDTAVYYCAAERFIYYQIFEYWGQGTQVTVSS | high polyreactivity
33 | QVQLVESGGGLVQAGGSLRLSCASSGSTFDANAMGWYRQAPGKERELVAAITSNGGSTYYADSVKGRFTISRDNAKNTVYLQMNSLKPEDTAVYYCATEQHTVQDYDYWGQGTQVTVSS | low polyreactivity
34 | QVQLVESGGGLVQAGGSLRLSCASSGSTFEANAMGWYRQAPGKERELVAVITWTGGSTYYADSVKGRFTISRDNAKNTLYLQMNSLKPEDTAVYYCDADGVVPGRFFWPAHEYEYWGQGTQGTVSS | low polyreactivity
35 | QVQLVESGGGLVQAGGSLRLSCASSGSTFNRYAMVWYRQAPGKERELVAAISGSGSSTYYADSVKGRFTISRDNAKNTVYLQMNSLKPEDNAVYYCAAVRYHKFREYNSWGQGTQVTVSS | high polyreactivity
36 | QVQLVESGGGLVQAGGSLRLSCASSGSTFNSYAMGWYRQAPGKERELVAAISWSGGSTYYADSVKGRFTISRDNAKNTVYLQMNSLKPEDTAVYYCNADYWWEYAYVVDYWGQGTQVTVSS | low polyreactivity
37 | QVQLVESGGGLVQAGGSLRLSCASSGSTFSYYDMGWYRQAPGKERELVAAISWNGGTTYYADSVKGRFTISRDNAKNTVYLQMNSLKPEDTAVYYCAATWDFYWAPYDSWGQGTQVSVSS | low polyreactivity
38 | QVQLVESGGGLVQAGGSLRLSCASSGSTFTPNAMGWYRQAPGKERELVASNYTTGGNTYYADSVKGRFTNSRDNAKNTVYLQMNSLKPEDTAVYYCNARQALVWKWSWYSPGYDYWGQGTQVTVSS | low polyreactivity
39 | QVQLVESGGGLVQAGGSLRLSCASSGYILRSNAMVWYRQAPGKEREFVAAITYSGGTTYYADSVKGRFTISRDNAKNTVYLQMNSLKPEDTAVYYCNADYGYYKLDYWGQGTQVTVSS | low polyreactivity
40 | QVQLVESGGGLVQAGGSLRLSCASSGYIYIVNAMGWYRQAPGKERELDAAINSSGGNTYYADSVKGRFTISRDNAKNTVYLQMNSLKPEDTGVYYCAADQAKDISFEYDYWGQGTQVTVSS | low polyreactivity
41 | QVQLVESGGGLVQAGGSLRLSCASSGYTFVYYAMGWYRQAPGKERELVAAINVSDGNTFYADSVKGRFTISRDNAKNTVYLQMNSLIPEDTAVYYCAADYYPYPPTSEYGYWGQGTQVTVSS | low polyreactivity
